This data set deals with the molecule itself. Briefly: SDS-PAGE of unboiled (native state) samples.

As a reminder, the stoichiometry N is a count of units in the complex or per binding partner.

B1: unencapsulated (naked) DyP purified from E. coli (enzyme)
chain: MAVPAVSPQPILAPLTPAAIFLVATIGADGEATVHDALSKISGLVRAIGFRDPTKHLSVVVSIGSDAWDRLFAGPRPTELHPFVELTGPRHTAPATPGDLLFHIRAETMDVCFELAGRILKSMGDAVTVVDEVHGFRFFDNRDLLGFVDGTENPSGPIAIKATTIGDEDRNFAGSCYVHVQKYVHDMASWESLSVTEQERVIGRTKLDDIELDDNAKPANSHVALNVITDDDGTERKIVRHNMPFGEVGKGEYGTYFIGYSRTPTVTEQMLRNMFLGDPAGNTDRVLDFSTAVTGGLFFSPTIDFLDHPPPLPQAATPTLAAGSLSIGSLKGSPR
notes: dye-decolorizing peroxidase DyP, Rv0799c, Mycobacterium tuberculosis; Tetramer seen after addition of hemin; The methods say the SUMO tag was removed; the results call the protein SUMO-tagged; A tetramer of 144 kDa would fit an untagged monomer of about 36 kDa (surmise); also called free DyP; SUMO-tagged unencapsulated DyP
For the protein B1, the “stoichiometry N” value was determined as 4.

The values above are taken from article PMC8635971, “A nanocompartment system contributes to defense against oxidative stress in Mycobacterium tuberculosis” (eLife, 2021).
